Results: US20220389118A1 (Chugai, published 2022)
Positions count from the first letter of the chain named. One block for each binder: values may come before it.

Columns and labels:
[1] = biological target: T1, soluble human IL-6 receptor (human, UniProt P08887 20-357); assay: SPR (Reference Example 6)
T1 construct: also called hsIL-6R
T1 sequence: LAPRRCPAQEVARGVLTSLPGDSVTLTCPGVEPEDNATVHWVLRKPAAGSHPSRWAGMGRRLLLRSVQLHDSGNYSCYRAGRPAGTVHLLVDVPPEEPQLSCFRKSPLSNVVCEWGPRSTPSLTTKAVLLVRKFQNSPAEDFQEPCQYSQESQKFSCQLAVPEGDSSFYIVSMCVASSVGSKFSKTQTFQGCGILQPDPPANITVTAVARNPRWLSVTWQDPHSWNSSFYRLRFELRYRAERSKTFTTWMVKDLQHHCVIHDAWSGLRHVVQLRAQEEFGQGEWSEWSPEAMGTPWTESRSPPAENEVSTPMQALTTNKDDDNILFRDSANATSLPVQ
Experimental: (§1) The kinetic analysis of the antigen-antibody reactions was conducted in solutions with 2 mM and 3 μM calcium ion concentrations, set as high and low calcium ion concentration conditions, respectively. The antibody of interest was captured on Sensor chip CM4 (GE Healthcare) on which an appropriate amount of Protein A (Invitrogen) was immobilized by an amine coupling method. Two buffers [10 mM ACES, 150 mM NaCl, 0.05% (w/v) Tween 20, and 2 mM CaCl₂) (pH 7.4) or 10 mM ACES, 150 mM NaCl, 0.05% (w/v) Tween 20, and 3 μmol/L CaCl₂ (pH 7.4)] were used as running buffers. These buffers were used for diluting human IL-6 receptor. All the measurements were conducted at 37° C.
(§2) Subsequently, the sensor chip was regenerated by injecting 10 mM glycine-HCl (pH 1.5) at a flow rate 30 μL/min for 30 seconds. Dissociation constants (KD) (M) were calculated from the sensorgrams obtained in the measurement, using a steady-state affinity model. Each parameter was calculated using the Biacore T100 Evaluation Software (GE Healthcare).

[2] = biological target: T2, soluble human IL-6 receptor (hsIL-6R) (human, UniProt P08887 20-357); assay: SPR (Biacore T100), 3 µM CaCl2; estimated by Equation 3; summary table
T2 sequence: T1 sequence
Experimental: as §1, §2

[3] = biological target: T2, soluble human IL-6 receptor (hsIL-6R); assay: SPR (Biacore T100), 3 µM CaCl2, pH 7.4, 37 C; KD estimated from Req, Rmax, RI and C by Equation 3
Experimental: as §1, §2

[4] = biological target: T3, human FcγRIIb extracellular domain with C-terminal His tag (human, UniProt P31994 43-217); assay: SPR (Biacore), antibody captured, FcγR analyte
T3 construct: extracellular domain; not shown: His tag at the C terminus
T3 sequence (looked up): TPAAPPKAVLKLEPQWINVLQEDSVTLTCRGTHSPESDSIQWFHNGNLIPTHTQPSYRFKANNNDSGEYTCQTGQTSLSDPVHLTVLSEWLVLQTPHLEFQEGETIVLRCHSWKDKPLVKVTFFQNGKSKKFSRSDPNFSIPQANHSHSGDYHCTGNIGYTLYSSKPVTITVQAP

[5] = biological target: T4, human FcγRIa extracellular domain with C-terminal His tag (human, UniProt P12314 16-292); assay: SPR (Biacore), antibody captured, FcγR analyte
T4 construct: not shown: His tag at the C terminus
T4 sequence (P12314 16-292): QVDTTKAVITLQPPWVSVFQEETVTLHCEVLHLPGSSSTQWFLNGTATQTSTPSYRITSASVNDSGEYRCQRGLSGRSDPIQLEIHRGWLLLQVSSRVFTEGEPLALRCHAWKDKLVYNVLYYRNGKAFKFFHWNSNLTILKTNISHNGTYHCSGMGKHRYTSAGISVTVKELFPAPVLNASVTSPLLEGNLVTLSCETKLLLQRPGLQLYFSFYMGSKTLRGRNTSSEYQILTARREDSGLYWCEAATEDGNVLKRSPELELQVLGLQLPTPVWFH

[6] = biological target: T5, human FcγRIIa type H (allotype H131) extracellular domain with C-terminal His tag (human, UniProt P12318 34-217); assay: SPR (Biacore), antibody captured, FcγR analyte
T5 construct: extracellular domain; also called FcγRIIaH; FcγRIIa H type; not shown: His tag at the C terminus
T5 sequence (looked up): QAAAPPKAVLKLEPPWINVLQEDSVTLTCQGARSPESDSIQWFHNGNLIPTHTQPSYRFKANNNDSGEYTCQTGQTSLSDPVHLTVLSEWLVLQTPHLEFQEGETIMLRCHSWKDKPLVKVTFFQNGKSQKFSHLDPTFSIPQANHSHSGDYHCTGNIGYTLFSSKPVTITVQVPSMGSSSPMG

[7] = biological target: T6, human FcγRIIIa type V (allotype V158) extracellular domain with C-terminal His tag (human, UniProt P08637 17-208); assay: SPR (Biacore), antibody captured, FcγR analyte
T6 construct: extracellular domain; also called FcγRIIIaV; FcγRIIIa V type; not shown: His tag at the C terminus
T6 sequence (P08637 17-208 F176V): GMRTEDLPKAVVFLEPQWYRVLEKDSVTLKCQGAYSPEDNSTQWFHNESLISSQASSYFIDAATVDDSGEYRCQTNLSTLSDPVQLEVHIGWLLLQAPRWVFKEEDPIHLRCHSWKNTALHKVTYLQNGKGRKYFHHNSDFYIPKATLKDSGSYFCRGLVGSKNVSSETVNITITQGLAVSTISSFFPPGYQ

[8] = biological target: T3, human FcγRIIb extracellular domain with …; assay: SPR (Biacore); KD ratio against IL6R-B3/IL6R-L
[9] = biological target: T7, human FcγRIIa type R extracellular domain (human, UniProt P12318 34-217); assay: SPR (Biacore), antibody captured on chip, FcγR extracellular domain as analyte, 25 C
T7 construct: also called FcγRIIaR; FcγRIIa(R); not shown: His tag at the C terminus
T7 chain: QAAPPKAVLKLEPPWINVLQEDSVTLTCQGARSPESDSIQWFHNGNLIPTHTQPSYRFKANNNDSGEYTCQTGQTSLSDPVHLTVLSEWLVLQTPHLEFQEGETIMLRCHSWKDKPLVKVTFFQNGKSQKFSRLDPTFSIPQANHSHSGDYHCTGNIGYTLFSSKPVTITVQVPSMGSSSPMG

[10] = biological target: T8, human FcγRIIa type H extracellular domain (human, UniProt P12318 34-217); assay: as above
T8 construct: also called FcγRIIaH; FcγRIIa(H); not shown: His tag at the C terminus
T8 sequence: T7 chain with R133H

[11] = biological target: T9, human FcγRIa extracellular domain (human, UniProt P12314 16-292); assay: as above
T9 construct: also called CD64; not shown: His tag at the C terminus
T9 sequence (P12314 16-292): as the sequence (P12314 16-292) above

[12] = biological target: T10, human FcγRIIb extracellular domain (human, UniProt P31994 43-217); assay: as above
T10 construct: also called FcγIIB; not shown: His tag at the C terminus
T10 sequence: T3 sequence (looked up)

[13] = biological target: T10, human FcγRIIb extracellular domain; assay: ratio of the SPR KD for FcγRIIaR to the KD for FcγRIIb (selectivity)
[14] = biological target: T10, human FcγRIIb extracellular domain; assay: ratio of the SPR KD for FcγRIIaH to the KD for FcγRIIb (selectivity)
[15] = biological target: T7, human FcγRIIa type R extracellular …; assay: fold against IL6R-B3/IL6R-L, from SPR KD values
[16] = biological target: T10, human FcγRIIb extracellular domain; assay: fold against IL6R-B3/IL6R-L, from SPR KD values
[17] = biological target: T1, soluble human IL-6 receptor; assay: SPR (Biacore T100), about 300 RU of antibody captured on a Protein A/G chip (CM5), human IL-6 receptor as analyte, pH 7.4, 1.2 mM CaCl2, 37 °C
Experimental: These buffers were each used to dilute human IL-6 receptor. All measurements were carried out at 37° C.
Then, 10 mM glycine-HCl (pH 1.5) was injected at a flow rate of 30 μl/min for 30 seconds to regenerate the sensor chip.

B1: 6RL#9-IgG1 (antibody, V domains shown)
VH: QVQLVQSGAEVKKPGASVKVSCKASGYTFTSYYMHWVRQAPGQGLEWMGIINPSGGSTSYAQKFQGRVTMTRDTSTSTVYMELSSLRSEDTAVYYCARDDPGGGEYYFDYWGQGTLVTVSS
VL: QSVLTQPPSVSGAPGQRVTISCTGSRSNMGAGYDVHWYQLLPGAAPKLLISHNTHRPSGVPDRFSGSKSGASASLAITGLQAEDEADYYCQSHDSSLSAVVFGGGTKLTVLS
notes: also called antibody 6RL#9
Ca-dependent binding ability [1]: ≥ 100 fold

B2: 6RL#9-IgG1 (antibody, V domains shown)
VH: B1 VH
VL: B1 VL
Kd [2]: ≥ 31000 nM | Kd [3]: ~31000 nM

B3: IL6R-BP198/IL6R-L (antibody, human IgG1, kappa)
heavy: QVQLQESGPGLVKPSETLSLTCAVSGHSISHDHAWSWVRQPPGEGLEWIGFISYSGITNYNPSLQGRVTISRDNSKNTLYLQMNSLRAEDTAVYYCARSLARTTAMDYWGEGTLVTVSSASTKGPSVFPLAPSSKSTSGGTAALGCLVKDYFPEPVTVSWNSGALTSGVHTFPAVLQSSGLYSLSSVVTVPSSSLGTQTYICNVNHKPSNTKVDKKVEPKSCDKTHTCPPCPAPDYLGGDSVFLFPPKPKDTLMISRTPEVTCVVVDVSDEDGEVKFNWYVDGVEVHNAKTKPREEQYNSTYRVVSVLTVLHQDWLNGKEYKCKVSNAALPKPIEKTISKAKGQPREPQVYTLPPSRDELTKNQVSLTCLVKGFYPSDIAVEWESNGQPENNYKTTPPVLDSDGSFFLYSKLTVDKSRWQQGNVFSCSVMHEALHNHYTQESLSLSP
light: not shown
notes: copies: 2 + 2
Kd [4]: 200 nM | Kd [5]: 11 nM | Kd [6]: 20000 nM | Kd [7]: 44000 nM | KD(IIb) of parent polypeptide/KD(IIb) of altered polypeptide [8]: 15.7

B6: FH4-IgG1 (antibody, V domains shown)
VH: QVQLVQSGAEVKKPGSSVKVSCKASGGTFSSYAISWVRQAPGQGLEWMGGIIPIFGTANYAQKFQGRVTITADESTSTAYMELSSLRSEDTAVYYCARERDYYDSSGYYDAFDIWGQGTMVTVSS
VL: ETTVTQSPSFLSASVGDRVTITCITTTDIDDDMNWFQQEPGKAPKLLISEGNILRPGVPSRFSSSGYGTDFTLTISKLQPEDFATYYCLQSDNLPFTFGQGTKLEIKR
Ca-dependent binding ability [1]: ≥ 100 fold

B7: FH4-IgG1 (antibody, V domains shown)
VH: B6 VH
VL: B6 VL
Kd [2]: ≥ 34000 nM | Kd [3]: ~34000 nM

The next lines start with the values.

Kd [9]: 230 nM | Kd [10]: 4700 nM | Kd [11]: 2.4 nM | Kd [12]: 5.5 nM | KD(IIaR)/KD(IIb) [13]: 41.5 | KD(IIaH)/KD(IIb) [14]: 856 | KD(IIaR) of the parent polypeptide/KD(IIaR) of the altered polypeptide [15]: 4.8 | KD(IIb) of the parent polypeptide/KD(IIb) of the altered polypeptide [16]: 565
B4: IL6R-BP565/IL6R-L (antibody, human IgG1, kappa)
heavy: B3 heavy with Y236L, G239D, S269A, D270E, Y298D, A328K, K332R
light: not shown
notes: copies: 2 + 2

Kd [9]: 460 nM | Kd [10]: 8300 nM | Kd [11]: 12 nM | Kd [12]: 16 nM | KD(IIaR)/KD(IIb) [13]: 29.1 | KD(IIaH)/KD(IIb) [14]: 525 | KD(IIaR) of the parent polypeptide/KD(IIaR) of the altered polypeptide [15]: 2.4 | KD(IIb) of the parent polypeptide/KD(IIb) of the altered polypeptide [16]: 196
B5: IL6R-BP563/IL6R-L (antibody, human IgG1, kappa)
heavy: B3 heavy with Y236L, G239D, D270E, E274D, Y298D, A328K, K332R
light: not shown
notes: copies: 2 + 2

binding result [17]: binds
B8: 6RpH#02 (antibody, human IgG1, kappa, V domains shown)
VH: QVQLVQSGAEVKKPGSSVKVSCKASGGTFSSYAISWVRQAPGQGLEWMGGIIPIFGTANYAQKFQGRVTITADESTSTAYMELSSLRSEDTAVYYCMINGVWEGGMDVWGQGTTVTVSS
VL: DIQMTQSPSSLSASVGDRVTITCRASQSIHSHLNWYQQKPGKAPKLLIYHASKLQSGVPSRFSGSGSGTDFTLTISSLQPEDFATYYCQQHGNSPLTFGQGTKVEIKR
